Measured values as given in patent US20240076386A1 (Pfizer, published 2024).

What was measured:
[1] = target: T1, cynomolgus monkey E-selectin extracellular domain with 10 His purification tail (cynomolgus monkey, UniProt P16581 22-554 (human entry)); assay: SPR, soluble recombinant protein
T1 construct: also called cynomolgus E-selectin; truncated cynomolgus monkey E-selectin
T1 chain: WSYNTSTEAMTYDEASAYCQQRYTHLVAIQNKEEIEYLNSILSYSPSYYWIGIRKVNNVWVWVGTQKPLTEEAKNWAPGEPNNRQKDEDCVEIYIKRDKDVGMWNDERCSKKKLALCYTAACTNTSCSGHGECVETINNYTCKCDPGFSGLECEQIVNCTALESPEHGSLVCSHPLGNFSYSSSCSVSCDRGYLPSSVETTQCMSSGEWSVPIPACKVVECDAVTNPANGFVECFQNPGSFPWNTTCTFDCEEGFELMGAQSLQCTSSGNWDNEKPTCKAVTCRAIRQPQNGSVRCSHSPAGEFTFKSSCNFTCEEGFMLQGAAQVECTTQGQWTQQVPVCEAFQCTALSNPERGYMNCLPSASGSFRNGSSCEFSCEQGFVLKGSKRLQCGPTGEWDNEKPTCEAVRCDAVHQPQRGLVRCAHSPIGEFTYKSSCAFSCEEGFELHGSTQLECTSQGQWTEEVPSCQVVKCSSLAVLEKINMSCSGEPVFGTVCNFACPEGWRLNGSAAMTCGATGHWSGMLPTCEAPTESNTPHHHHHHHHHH
Description: To characterize binding of antibodies to human, cynomolgus monkey, and mouse E-selectin, an antibody was diluted to 0.5 μg/mL in HBS-EP+ and captured by the anti-human IgG immobilized on flow cells 2, 3 and 4 for 30 seconds to 1 minute at a flow rate of 10 μL/minute to achieve a capture level of 70 to 300 RU. Flow cell 1 was used as a reference surface. […] HBS-EP+ buffer cycles collected for each captured antibody were used for double-referencing (Myszka D G. J. Mol. Recognition 1999; 12(5):279-84). At the end of each cycle, the entire anti-IgG surface was regenerated by a 30 second pulse of 3 M MgCl₂ and a 30 second pulse of ionic buffer (1.83 M MgCl₂, 0.92 M Urea, 1.83 M Guanidine HCl, pH 7.4) (Andersson K. Analy. Chem. 1999; 71(13): 2475-81). Kinetic assays were conducted at 25° C. at a collection rate of 10 Hertz (Hz) on a BIAcore™ T200 instrument (GE Healthcare). Rate constants and affinities were determined by fitting the data to a 1:1 binding model in BIAcore™ T200 Evaluation software version 3.0 (GE Healthcare).

[2] = target: T2, recombinant histidine-tagged cynomolgus monkey E-selectin (Sino Biologicals; 190169-C08H) (cynomolgus monkey, UniProt A0A2K5U7H9 22-554); assay: competition ELISA on soluble E-selectin vs sialyl Lewis A, further assays
T2 construct: also called recombinant cynomolgus monkey E-selectin
T2 sequence: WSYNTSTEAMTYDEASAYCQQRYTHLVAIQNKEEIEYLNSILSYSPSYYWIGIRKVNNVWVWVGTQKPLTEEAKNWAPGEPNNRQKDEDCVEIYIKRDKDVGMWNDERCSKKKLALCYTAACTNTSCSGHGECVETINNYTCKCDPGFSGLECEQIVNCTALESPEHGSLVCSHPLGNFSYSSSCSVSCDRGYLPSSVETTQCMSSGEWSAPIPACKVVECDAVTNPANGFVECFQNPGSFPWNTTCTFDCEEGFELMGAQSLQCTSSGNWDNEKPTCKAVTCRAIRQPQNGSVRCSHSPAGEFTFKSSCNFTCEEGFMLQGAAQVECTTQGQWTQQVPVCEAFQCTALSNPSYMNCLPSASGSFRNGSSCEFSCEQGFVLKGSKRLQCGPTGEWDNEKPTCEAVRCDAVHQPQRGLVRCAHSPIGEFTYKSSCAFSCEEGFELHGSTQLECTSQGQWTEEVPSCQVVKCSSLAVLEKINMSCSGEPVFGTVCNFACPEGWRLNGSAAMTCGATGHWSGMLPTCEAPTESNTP
Description: (§1) Recombinant histidine-tagged E-selectin; cynomolgus monkey E-selectin (Sino Biologicals; 190169-C08H) and human E-selectin (Sino Biologicals; 13025-H08H) stock solutions were prepared to a final concentration of 3 μg/mL in phosphate buffered saline (PBS) without calcium and magnesium. One hundred μL per well of the diluted recombinant E-selectin protein was added into a Ni-NTA HisSorb 96 well plate (Qiagen, 35061) and plates were incubated on an orbital shaker at room temperature for 2 hours. Sialyl Lewis A polyacrylamide biotin, a synthetic E-selectin ligand (GlycoTech corporation 01-044), was conjugated to streptavidin HRP (horse radish peroxidase) (Ultra Streptavidin HRP, Thermo Scientific N504) and diluted in assay diluent containing 2 mM calcium chloride (BD OptEIA buffer; BD Biosciences, 555213).
(§2) Following the incubation, the plates were washed 5 times with 200 μL of wash buffer containing 2 mM of calcium chloride (50 mM TRIS [trisaminomethane]; 150 mM sodium chloride, 0.05% polysorbate 20, pH 7.4; 2 mM of calcium chloride). […] The final antibody concentration ranged from 200 nM to 0.09 nM and the final concentration of HRP conjugated Sialyl Lewis A was 5 μg/mL. […] Reactions were stopped with 100 μl of 2M sulfuric acid and absorbance read at 450 nm (Spectramax M5e). Data were analyzed and graphed using GraphPad Prism software (Version 8.0.2).

[3] = target: T3, recombinant histidine-tagged human E-selectin (Sino Biologicals; 13025-H08H) (human, UniProt P16581 22-556); assay: as above
T3 construct: also called recombinant human E-selectin; soluble recombinant human E-selectin
T3 sequence (looked up): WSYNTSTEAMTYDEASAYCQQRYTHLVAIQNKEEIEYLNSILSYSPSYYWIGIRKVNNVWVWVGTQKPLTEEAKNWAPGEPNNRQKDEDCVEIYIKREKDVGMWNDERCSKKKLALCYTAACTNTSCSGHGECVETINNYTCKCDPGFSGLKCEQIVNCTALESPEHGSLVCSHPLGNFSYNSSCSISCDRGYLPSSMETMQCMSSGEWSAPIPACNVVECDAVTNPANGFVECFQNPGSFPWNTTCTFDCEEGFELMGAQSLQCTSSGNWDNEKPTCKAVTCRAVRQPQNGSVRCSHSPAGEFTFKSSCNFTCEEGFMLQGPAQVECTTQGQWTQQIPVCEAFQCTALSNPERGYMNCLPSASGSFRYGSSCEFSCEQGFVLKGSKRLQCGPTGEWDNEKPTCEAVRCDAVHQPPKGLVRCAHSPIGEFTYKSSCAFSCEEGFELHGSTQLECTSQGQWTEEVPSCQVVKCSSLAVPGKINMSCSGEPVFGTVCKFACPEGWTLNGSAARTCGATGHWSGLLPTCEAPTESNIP
Description: as §1, §2

Kd [1]: 64.9 nM | IC50 [2]: 2.45 nM | IC50 [3]: 2.91 nM
B1: optimized anti-E-selectin antibody 1444 (antibody, human IgG1, kappa, V domains shown)
VH: EVQLVESGGGLVQPGGSLRLSCAASGYAIRSAYMHWVRQAPGKGLEWVARIDPANGNTIYVDSVTGRFTISADNAKNSAYLQMNSLRAEDTAVYYCAMDLYSTSEYWGQGTLVTVSS
VL: DIQMTQSPSSLSASVGDRVTITCKTSQNIERYLNWYQQKPGKAPKLLIYAASSLQSGVPSRFSGSGSGTDFTLTISSLQPEDFATYFCLQDNAWPLTFGQGTKVEIKR
notes: effector-null human IgG1, kappa
